Assay results taken from US20210061861A1, “D-PEPTIDIC COMPOUNDS FOR VEGF” (Reflexion Pharmaceuticals, Inc., priority 2019, published 2021).
One block for each molecule: values may come before it. Bridges are numbered along the chain shown (N, C = ends). Where no end group is shown, it is not given here. [ ]: non-standard residue; d: D form.

Assays:
[1] = target: T1, VEGF-A binding to VEGFR1 receptor (Homo sapiens, UniProt P15692); test: VEGF-A:VEGFR1 inhibition in Octet assay; format: biochemical; conditions: for inhibition at 0.08 µM: read-out: % inhibition at 80 nM compound, D-peptidic compounds
T1 sequence (P15692 214-315 limits assumed): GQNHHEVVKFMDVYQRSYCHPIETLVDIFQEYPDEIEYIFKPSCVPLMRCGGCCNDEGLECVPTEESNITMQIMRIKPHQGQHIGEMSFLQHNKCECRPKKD

VEGF-A = target: T2, VEGF-A (Homo sapiens, UniProt P15692); conditions: 5 μM 978336 to saturation, then 5 μM 978336 plus 1 μM 11055
T2 sequence (P15692 214-315): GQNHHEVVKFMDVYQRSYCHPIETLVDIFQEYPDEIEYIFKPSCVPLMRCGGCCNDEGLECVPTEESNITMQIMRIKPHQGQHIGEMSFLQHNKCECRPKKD

HUVEC cell proliferation = conditions: read-out: IC50 for inhibition of cell proliferation in response to VEGF signaling; HUVEC, recombinant VEGF-A
[2] = test system: VEGF-A signaling through VEGFR2; test: VEGFR2 luciferase reporter cell signaling assay (KDR/NFAT-RE HEK293); format: cell-based; conditions: 150 pM VEGF-A; read-out: IC50, inhibition of VEGFR2 signaling (luciferase)
L-VEGF-A [3] = target: T3, L-VEGF-A (Homo sapiens, UniProt P15692); test: kd (s^-1)
T3 construct: Biotinylated VEGF-A(8-109) was immobilized on a biotin CAPture chip

L-VEGF-A [4] = target: T3, L-VEGF-A; test: ka (10^6/M^-1s^-1)
VEGF-A (form not stated) [5] = target: VEGF-A (form not stated) (UniProt P15692); test: Octet; inhibition of VEGF-A (10 nM) binding to VEGFR1
[6] = target: D-VEGF-A (8-109), synthetic mirror-image protein (Homo sapiens (Human)) (UniProt P15692); test: competitive phage ELISA; L-peptidic compound on D-VEGF-A
[7] = target: D-VEGF-A (8-109), synthetic mirror-image protein (Homo sapiens (Human)) (UniProt P15692); test: SPR; L-peptidic compound on D-VEGF-A
[8] = target: L-VEGF-A (8-109) (Homo sapiens (Human)) (UniProt P15692); test: SPR
VEGF-A (form not stated) [9] = target: VEGF-A (form not stated) (UniProt P15692); test: equilibrium VEGF-A/VEGFR1 blocking ELISA, 150 pM VEGF-A
[10] = target: L-VEGF-A (8-109) (Homo sapiens (Human)) (UniProt P15692); test: SPR per Examples 7, 8, 11 (method not named in Table 4)
[11] = target: T4, Biotinylated human VEGF-A121 (human, UniProt P15692-9 27-147, biotinylated); test: non-equilibrium VEGF-A121 blocking ELISA
T4 construct: Bought; also called VEGF-A121-biot
T4 sequence (looked up): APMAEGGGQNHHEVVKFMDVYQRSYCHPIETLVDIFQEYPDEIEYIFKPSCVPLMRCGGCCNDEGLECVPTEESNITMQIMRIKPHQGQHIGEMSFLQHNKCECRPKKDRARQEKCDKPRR

[12] = target: L-VEGF-A (8-109) (Homo sapiens (Human)) (UniProt P15692); test: SPR on natural L-VEGF-A
[13] = target: T4, Biotinylated human VEGF-A121; test: equilibrium VEGF-A121/VEGFR1 blocking ELISA
VEGF-A (form not stated) [14] = target: VEGF-A (form not stated) (UniProt P15692); test: cell-based or functional assay
[15] = target: L-VEGF-A (8-109) (Homo sapiens (Human)) (UniProt P15692); test: SPR, biotinylated VEGF-A(8-109) on a biotin CAPture chip, D-protein in solution, global single site kinetic fit
VEGF-A (form not stated) [16] = target: VEGF-A (form not stated) (UniProt P15692); test: VEGF-A blocking ELISA on coated VEGFR1-Fc
VEGF-A (form not stated) [17] = target: T5, VEGF-A (form not stated) (UniProt P15692-9 27-147, limits assumed); test: equilibrium VEGF-A/VEGFR1 blocking ELISA, 150 pM VEGF-A; soluble VEGFR1-Fc against coated VEGFR1-Fc
T5 construct: also called biotinylated-VEGF-A; recombinant VEGF-A
T5 sequence (looked up): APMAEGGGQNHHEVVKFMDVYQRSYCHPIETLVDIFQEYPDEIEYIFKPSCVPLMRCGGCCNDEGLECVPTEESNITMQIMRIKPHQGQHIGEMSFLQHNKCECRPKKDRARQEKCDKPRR

[18] = target: T4, Biotinylated human VEGF-A121; test: equilibrium VEGF-A121/VEGFR1 blocking ELISA; soluble VEGFR1-Fc against coated VEGFR1-Fc
VEGF-A (form not stated) [19] = target: VEGF-A (form not stated) (UniProt P15692); test: Octet; inhibition of VEGF-A binding to VEGFR1

Molecule: [dT][dI][dD][dQ][dW][dL][dL][dK][dN][dA][dK][dE][dD][dA][dI][dA][dE][dL][dK][dK][dA]G[dI][dT][dE][dP][dH][dV][dI][dS][dF][dI][dN][dH][dA][dP][dY][dV][dS][dH][dV][dN]G[dL][dN][dA][dI][dL]G[dR][dT][dV][dP] [1.1.1(c21a) (-kaha, Grtvp), tidqwllknakedaiaelkkaGitephvisfinhapyvshvnGlnailGrtvp]
- inhibition at 0.08 µM [1]: 27%

Molecule: tidqwllknakedaiaelkkaGitephvisfinhapyvshvnGlknailkaha [Compound 11055]
- binding of 978336 and 11055 together to VEGF-A (VEGF-A): additive binding

Molecule: [dP][dA][dL][dL][dK][dN][dA][dK][dE][dD][dA][dI][dA][dE][dL][dK][dK][dA]G[dI][dT][dE][dP][dH][dV][dI][dS][dF][dI][dN][dH][dA][dP][dY][dV][dS][dH][dV][dN]G[dL][dK][dN][dA][dI][dL]G[dR][dT][dV][dP] [1.1.1.2 (pa, pis), pallknakedaiaelkkaGitephvisfinhapyvshvnGlknailGrtvp]
- inhibition at 0.08 µM [1]: 18%

B1: 1.1 (D-peptidic) (designed binder)
chain: [dT][dI][dD][dQ][dW][dL][dL][dK][dN][dA][dK][dE][dD][dA][dI][dA][dE][dL][dK][dK][dA]G[dI][dT][dE][dD][dH][dV][dF][dN][dF][dI][dN][dH][dA][dP][dY][dV][dS][dH][dV][dN]G[dL][dK][dN][dA][dI][dL][dK][dA][dH][dA]
- IC50 (VEGF-A (form not stated) [5]): 105 nM

B2: 1.1 (-kaha, GehGsp) (L-peptidic) (designed binder)
chain: TIDQWLLKNAKEDAIAELKKAGITEDHVFNFINHAPYVSHVNGLKNAILGEHGSP
- IC50 [6]: 14 nM

B3: 1.1 (L-peptidic) (designed binder)
chain: TIDQWLLKNAKEDAIAELKKAGITEDHVFNFINHAPYVSHVNGLKNAILKAHA
- IC50 [6]: 100 to 105 nM
- Kd [7]: 140 nM

Molecule: LLKNAKEDAIAELKKAGITEPHVISFINHAPYVSHVNGLKNAILEDWYL (designed binder) [1.1.1(c21a) (-tidqw, -kaha, edwyl) (L-peptidic)]
- IC50 [6]: 0.86 to 1.1 nM

More lines, main results first:

- IC50 [2]: 0.53 nM
Molecule: bevacizumab [reference compound]
- IC50 (HUVEC cell proliferation): 0.7 nM

- % inhibition at 80 nM compound ([1]; D-peptidic compounds): 68%
Molecule: tidqwllknakedaiaelkkaGitephvisfinhapyvshvnGlknailkahac(acetyl)

- kd (L-VEGF-A [3]): 0.0052 s⁻¹
- ka (10^6/M^-1s^-1) (L-VEGF-A [4]): 2.14 10^6/M^-1s^-1
Molecule: yhiqwvcknakedaiaelkkaGitephvisfinhapncshvnGlknailkaha ([dY][dH][dI][dQ][dW][dV][dC][dK][dN][dA][dK][dE][dD][dA][dI][dA][dE][dL][dK][dK][dA]G[dI][dT][dE][dP][dH][dV][dI][dS][dF][dI][dN][dH][dA][dP][dN][dC][dS][dH][dV][dN]G[dL][dK][dN][dA][dI][dL][dK][dA][dH][dA]-NH2; disulfide 7-38; not fully specified; printed as yhiqwvcknakedaiaelkkaGitephvisfinhapncshvnGlknailkaha) [Compound 979110]

- IC50 [6]: 12 nM
B4: 1.1 (-kaha, adfl) (L-peptidic) (designed binder)
chain: TIDQWLLKNAKEDAIAELKKAGITEDHVFNFINHAPYVSHVNGLKNAILADFL

- IC50 [6]: 5 nM
B5: 1.1 (-kaha, edyl) (L-peptidic) (designed binder)
chain: TIDQWLLKNAKEDAIAELKKAGITEDHVFNFINHAPYVSHVNGLKNAILEDYL

- fold affinity improvement over RFX-11055 [8]: 19 fold
- fold improvement of VEGF binding over 11055 [8]: 10 fold
- IC50 (VEGF-A (form not stated) [9]): 7 nM
- Kd [10]: 2.3 nM
- fold improvement of IC50 over RFX-11055 [11]: 15 fold
- Kd [12]: 3.6 nM
- IC50 [13]: 7.6 nM
- HUVEC cell proliferation, apparent IC50 (VEGF-A (form not stated) [14]): 131 nM
- HUVEC cell proliferation, potency against 11055 (VEGF-A (form not stated) [14]): 4 fold
- fold decrease in HUVEC cell proliferation, potency against bevacizumab (VEGF-A (form not stated) [14]): 185 fold
- koff [15]: 0.0052 s⁻¹
- kon [15]: 2.14e+06 M⁻¹ s⁻¹
- fold better IC50 than 11055 (VEGF-A (form not stated) [16]): 14.8 fold
B6: RFX-979110 (designed binder)
chain: [dY][dH][dI][dQ][dW][dV][dC][dK][dN][dA][dK][dE][dD][dA][dI][dA][dE][dL][dK][dK][dA]G[dI][dT][dE][dP][dH][dV][dI][dS][dF][dI][dN][dH][dA][dP][dN][dC][dS][dH][dV][dN]G[dL][dK][dN][dA][dI][dL][dK][dA][dH][dA]-NH2
modifications: disulfide 7-38; not fully specified

- Kd [7]: 450 nM
Molecule: LLKNAKEDAIAELKKAGITEDHVFNFINHAPYVSHVNGLKNAILKAHA (designed binder) [1.1 (-tidqw) (L-peptidic)]

- IC50 (VEGF-A (form not stated) [17]): 0.22 nM
- IC50 [18]: 0.23 nM
B7: VEGFR1-Fc (Fc fusion, UniProt P17948 27-756, looked up)
chain: SKLKDPELSLKGTQHIMQAGQTLHLQCRGEAAHKWSLPEMVSKESERLSITKSACGRNGKQFCSTLTLNTAQANHTGFYSCKYLAVPTSKKKETESAIYIFISDTGRPFVEMYSEIPEIIHMTEGRELVIPCRVTSPNITVTLKKFPLDTLIPDGKRIIWDSRKGFIISNATYKEIGLLTCEATVNGHLYKTNYLTHRQTNTIIDVQISTPRPVKLLRGHTLVLNCTATTPLNTRVQMTWSYPDEKNKRASVRRRIDQSNSHANIFYSVLTIDKMQNKDKGLYTCRVRSGPSFKSVNTSVHIYDKAFITVKHRKQQVLETVAGKRSYRLSMKVKAFPSPEVVWLKDGLPATEKSARYLTRGYSLIIKDVTEEDAGNYTILLSIKQSNVFKNLTATLIVNVKPQIYEKAVSSFPDPALYPLGSRQILTCTAYGIPQPTIKWFWHPCNHNHSEARCDFCSNNEESFILDADSNMGNRIESITQRMAIIEGKNKMASTLVVADSRISGIYICIASNKVGTVGRNISFYITDVPNGFHVNLEKMPTEGEDLKLSCTVNKFLYRDVTWILLRTVNNRTMHYSISKQKMAITKEHSITLNLTIMNVSLQDSGTYACRARNVYTGEEILQKKEITIRDQEAPYLLRNLSDHTVAISSSTTLDCHANGVPEPQITWFKNNHKIQQEPGIILGPGSSTLFIERVTEEDEGVYHCKATNQKGSVESSAYLTVQGTSDKSN
notes: Bought; also called VEGFR1-Fc fusion; soluble decoy receptor VEGFR1-Fc; not shown: Fc part

- % inhibition at 80 nM compound (VEGF-A (form not stated) [19]): 18%
B8: 1.1.1.2 (pa, pis) (D-peptidic) (designed binder)
chain: [dP][dA][dL][dL][dK][dN][dA][dK][dE][dD][dA][dI][dA][dE][dL][dK][dK][dA]G[dI][dT][dE][dP][dH][dV][dI][dS][dF][dI][dN][dH][dA][dP][dY][dV][dS][dH][dV][dN]G[dL][dK][dN][dA][dI][dL]G[dR][dT][dV][dP]
